Reference: US20210332152A1

What was measured:
[1] = molecular target: human serum-derived γ-globulin (Sigma-Aldrich) (human); experiment: column chromatography; 0.5 mg synthetic peptide immobilised on NHS-activated column, 1 mg/mL γ-globulin fed, 10% breakthrough
human IgG (human) = experiment: SPR (BIAcore T200), peptide immobilised on sensor chip, human IgG injected

- dynamic binding capacity (DBC) [1]: 6.9 mg/mL-column
- Kd (human IgG (human)): 14 nM
- koff (human IgG (human)): 0.0048 s⁻¹
- kon (human IgG (human)): 330000 M⁻¹ s⁻¹
Binder: GPDCAYHRGELVWCTFH [peptide (amino acid sequence: SEQ ID NO: 18) prepared by chemical synthesis]
